Target: the molecule itself
Test: SEC

B1: EBOV VP40 with 6xHis tag (pET46-VP40-6xHis), recombinant dimer (natural protein)
chain: MRRVILPTAPPEYMEAIYPVRSNSTIARGGNSNTGFLTPESVNGDTPSNPLRPIADDTIDHASHTPGSVSSAFILEAMVNVISGPKVLMKQIPIWLPLGVADQKTYSFDSTTAAIMLASYTITHFGKATNPLVRVNRLGPGIPDHPLRLLRIGNQAFLQEFVLPPVQLPQYFTFDLTALKLITQPLPAATWTDDTPTGSNGALRPGISFHPKLRPILLPNKSGKKGNSADLTSPEKIQAIMTSLQDFKIVPIDPTKNIMGIEVPETLVHKLTGKKVTSKNGQPIIPVLLPKYIGLDPVAPGDLTMVITQDCDTCHSPASLPAVIEK
stoichiometry N: 2
